{
  "source": "paper PMC11873932",
  "target": "Protein Serine Kinase H1 (PSKH1), recombinant full-length, wild type (human) (UniProt P11801)",
  "sequence (P11801 whole entry)": "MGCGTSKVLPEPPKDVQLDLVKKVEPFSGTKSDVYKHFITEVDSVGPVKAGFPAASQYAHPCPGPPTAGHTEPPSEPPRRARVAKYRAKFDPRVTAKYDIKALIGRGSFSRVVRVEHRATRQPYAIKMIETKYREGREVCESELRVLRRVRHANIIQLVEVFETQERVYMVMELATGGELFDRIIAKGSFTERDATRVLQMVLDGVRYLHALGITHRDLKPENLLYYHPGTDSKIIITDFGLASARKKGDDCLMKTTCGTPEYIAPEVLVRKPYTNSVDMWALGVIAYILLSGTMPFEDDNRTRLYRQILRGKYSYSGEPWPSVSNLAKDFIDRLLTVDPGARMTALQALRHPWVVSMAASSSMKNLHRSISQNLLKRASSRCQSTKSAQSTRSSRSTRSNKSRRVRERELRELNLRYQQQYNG",
  "data": [
    {"substance": "Calmodulin, recombinant (His6-Calmodulin) (from UniProt P0DP23 1-149) (natural protein)", "values": [
      {"measurement": "half-maximal activation (EC50) of HA-tagged PSKH1 (10 ng) kinase activity, titration of CaM 0-1,000 nM, radiometric assay", "result": 58.7, "unit": "nM"},
      {"measurement": "radiometric kinase assay (ADR1 peptide phosphorylation) of HA-tagged PSKH1 (10 ng) with Ca2+-CaM (1 uM)", "result": 10, "unit": "fold"}
    ]}
  ]
}
